The values that follow come from patent US20030124568A1 (published 2003).

Ends that are not written are not given here.

What all share (assay): yeast two-hybrid cotransformation in Y190
Test [1] addresses T1, GIRK1-NC-bait (GAL4-DNA binding domain fused to the N terminus of the GIRK1 subunit, a linker sequence GSSGSS … (rat, UniProt P04386 1-147; P63251 1-80; P63251 180-501, limits assumed).
T1 construct: Yeast two-hybrid bait in pDBLeu, expressed in yeast strain Y190
From the text:
(§1) The DNA (accession no.: U09243, EMBL datebase) coding for the carboxyl terminus or the amino terminus of the GIRK1 subunit was amplified by PCR starting from the plasmid “GIRK1NC-bait” using the primers GGIRK1-4s (5′-[…]-3′) and GGIRK1-as (5′-[…]-3′) or GIRK1-NC-s (5′ -[…]-3′) and GIRK1-N-as (5′-[…]-3′) and cloned into the vector pDBLeu. Each of the plasmids was cotransformed with the pPC86 plasmid. GIRK1NCprey2 (SEQ ID NO: 1 nucleotides 1011-1349) or with the plasmid GIRK1NCprey3 (SEQ ID NO: 1, nucleotides 500-1193) into the yeast strain Y190. […] It is evident that the interaction with Mogli takes place only in the presence of both intracellular portions of GIRK1.

In test [2] the target is T2, amino terminus of the GIRK1 subunit cloned into the vector pDBLeu (rat, UniProt P04386 1-147; P63251 1-80, limits assumed).
T2 construct: Yeast two-hybrid bait with the GIRK1 N terminus alone; also called N terminus of GIRK1
Source text: as §1

The target in test [3] is T3, carboxyl terminus of the GIRK1 subunit cloned into the vector pDBLeu (rat, UniProt P04386 1-147; P63251 180-501, limits assumed).
T3 construct: Yeast two-hybrid bait with the GIRK1 C terminus alone; also called C terminus of GIRK1
Source text: as §1

B1: nucleotide region 1011-1193 of SEQ ID NO: 1 (overlap of GIRK1NCprey2 and GIRK1NCprey3) cloned into the plasmid pPC86 (other, not shown: small tags and cut ends)
chain: ESERRLHERESEIMELKSQLARMREDWIEEECHRVEAQLALKEARKEIKQLKQVIETMRS
modifications: also: fused to GAL4 activation domain with pPC86 linker and tail residues
notes: Residue range converted from the printed nucleotide range; also called 1NCprey23o construct
For the molecule B1, the binding result in test [1] is recorded as “no binding”.

B2: GIRK1NCprey2 (nucleotides 1011-1349 of SEQ ID NO: 1, fragment of rat Mogli, in pPC86) (other)
chain: ESERRLHERESEIMELKSQLARMREDWIEEECHRVEAQLALKEARKEIKQLKQVIETMRSSLADKDKGIQKYFVDINIQNKKLESLLQSMEMAHNSSLRDELCLDFSFDSPE
notes: Residue range converted from the printed nucleotide range; also called prey plasmid; Mogli fragment
With B2, the binding result in test [2] and in test [3] was “no binding” in each case.

B3: GIRK1NCprey3 (nucleotides 500-1193 of SEQ ID NO: 1, fragment of rat Mogli, in pPC86) (other)
chain: RIGMVGEGNIQSARYKKESKGGIIKPGSEADFSSSSSTGSISAPEVHMSTTGNKRASFSRNRGPHGRSNGAPSHKSGSSPPSPREKDLVSMLCRNPLSPSNIHPSYAPSSPSSSNSGSYKGSDCSPVMRRSGRYMSCGENHGVKPPNPEQYLTPLQQKEVTVRHLRTKLKESERRLHERESEIMELKSQLARMREDWIEEECHRVEAQLALKEARKEIKQLKQVIETMRS
notes: as for B2
For the molecule B3, the binding result in test [2] and in test [3] was “no binding” in each case.
